Target: T1, RIα-D/D-GFP (Bos taurus, UniProt P00514)
T1 construct: The dimerization/docking (D/D) domain of RIα and full-length RIIα were each fused with green fluorescent protein (GFP); expressed in transfected cells; host or cells: 10T(1/2) cells
Assay: Co-localization of PKA regulatory domain with mitochondria-targeted AKB domain in 10T(1/2) cells (Example 3)
Format: cell-based
Settings: C-terminal 156 residues of D-AKAP2 fused to D-AKAP1 mitochondrial anchoring domain
Excerpt: The 30 amino acid mitochondrial anchoring domain of D-AKAP1 (Chen et al. (1997) J. Biol. Chem., 272:15247-57; and Huang et al. (1997) J. Biol. Chem., 272:8057-8064) was fused to the C-terminal 156 residues of mouse (amino acids 217-372 of SEQ ID NO:55) and human (amino acids 507-662 of SEQ ID NO:64) D-AKAP2, respectively, followed by a Flag-tag and subcloned into pcDNA4 (Invitrogen, Carlsbad, Calif.). The dimerization/docking (D/D) domain of RIα and full-length RIIα were each fused with green fluorescent protein (GFP) and cloned into pEGFPN1 (Clontech, Palo Alto, Calif.). […] The AKB domain was detected by immuno-staining with monoclonal antibodies against the Flag-tag (Kodak, Rochester, N.Y.) followed by rhodamine-conjugated secondary antibody (Jackson Lab, Bar Harbor, Me.). […]
In this assay, the AKB domain within the C-terminal 156 residues of D-AKAP2 from mouse (Val) and human (Ile) was fused to the mitochondrial anchoring domain from D-AKAP1 and tethered to the outer mitochondrial membrane (Chen et al. (1997) J. Biol. Chem., 272:15247-15257; and Huang et al. (1997) J. Biol. Chem., 272:8057-8064). The binding of the AKB domain with the PKA regulatory domains was detected as the co-transfected PKA regulatory domains co-localized to the mitochondria. […]

T1 sequence (P00514 2-135 limits assumed): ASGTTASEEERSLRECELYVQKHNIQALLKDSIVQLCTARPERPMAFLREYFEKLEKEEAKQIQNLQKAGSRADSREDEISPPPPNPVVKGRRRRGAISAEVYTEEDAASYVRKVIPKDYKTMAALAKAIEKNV

targeting of RIα to the mitochondria: decrease in mitochondrial localization | targeting of RIα to the mitochondria (listed as lie variant): unable to target RIα
B1: Ile (646) variant: D-AKAP2 AKB domain with Ile at amino acid 646 (SEQ ID NO:64), tested as GST fusion or mitochondria-targeted fusion construct (protein, listed as Homo sapiens)
chain: MRGAGPSPRQSPRTLRPDPGPAMSFFRRKVKGKEQEKTSDVKSIKASISVHSPQKSTKNHALLEAAGPSHVAINAISANMDSFSSSRTATLKKQPSHMEAAHFGDLGRSCLDYQTQETKSSLSKTLEQVLHDTIVLPYFIQFMELRRMEHLVKFWLEAESFHSTTWSRIRAHSLNTMKQSSLAEPVSPSKKHETTASFLTDSLDKRLEDSGSAQLFMTHSEGIDLNNRTNSTQNHLLLSQECDSAHSLRLEMARAGTHQVSMETQESSSTLTVASRNSPASPLKELSGKLMKSIEQDAVNTFTKYISPDAAKPIPITEAMRNDIIARICGEDGQVDPNCFVLAQSIVFSAMEQEHFSEFLRSHHFCKYQIEVLTSGTVYLADILFCESALFYFSEYMEKEDAVNILQFWLAADNFQSQLAAKKGQYDGQEAQNDAMILYDKYFSLQATHPLGFDDVVRLEIESNICREGGPLPNCFTTPLRQAWTTMEKVFLPGFLSSNLYYKYLNDLIHSVRGDEFLGGNVSPTAPGSVGPPDESHPGSSDSSASQSSVKKASIKILKNFDEAIIVDAASLDPESLYQRTYAGKMTFGRVSDLGQFIRESEPEPDVRKSKGSMFSQAMKKWVQGNTDEAQEELAWKIAKMIVSDIMQQAQYDQPLEKSTKL
modifications: GST or mitochondria-targeting fusion
